Test results as given in the supplement of paper PMC10065799, “High-throughput profiling of sequence recognition by tyrosine kinases and SH2 domains using bacterial peptide display” (eLife, 2023).

Key:
SHP2-C SH2 = test: SH2 binding enrichment of the phosphorylated peptide, bacterial display (enrichment ratio); higher = better substrate or ligand; peptides without Tyr show the background
c-Src SH2 = test: as above
Grb2 SH2 = Grb2 SH2 (UniProt P62993); test: as above
AncSZ = test: phosphorylation enrichment, bacterial display (enrichment ratio); higher = better substrate or ligand; peptides without Tyr show the background
Jak2 = Jak2 (UniProt O60674); test: as above
Sequence of Jak2 (O60674 whole entry, looked up): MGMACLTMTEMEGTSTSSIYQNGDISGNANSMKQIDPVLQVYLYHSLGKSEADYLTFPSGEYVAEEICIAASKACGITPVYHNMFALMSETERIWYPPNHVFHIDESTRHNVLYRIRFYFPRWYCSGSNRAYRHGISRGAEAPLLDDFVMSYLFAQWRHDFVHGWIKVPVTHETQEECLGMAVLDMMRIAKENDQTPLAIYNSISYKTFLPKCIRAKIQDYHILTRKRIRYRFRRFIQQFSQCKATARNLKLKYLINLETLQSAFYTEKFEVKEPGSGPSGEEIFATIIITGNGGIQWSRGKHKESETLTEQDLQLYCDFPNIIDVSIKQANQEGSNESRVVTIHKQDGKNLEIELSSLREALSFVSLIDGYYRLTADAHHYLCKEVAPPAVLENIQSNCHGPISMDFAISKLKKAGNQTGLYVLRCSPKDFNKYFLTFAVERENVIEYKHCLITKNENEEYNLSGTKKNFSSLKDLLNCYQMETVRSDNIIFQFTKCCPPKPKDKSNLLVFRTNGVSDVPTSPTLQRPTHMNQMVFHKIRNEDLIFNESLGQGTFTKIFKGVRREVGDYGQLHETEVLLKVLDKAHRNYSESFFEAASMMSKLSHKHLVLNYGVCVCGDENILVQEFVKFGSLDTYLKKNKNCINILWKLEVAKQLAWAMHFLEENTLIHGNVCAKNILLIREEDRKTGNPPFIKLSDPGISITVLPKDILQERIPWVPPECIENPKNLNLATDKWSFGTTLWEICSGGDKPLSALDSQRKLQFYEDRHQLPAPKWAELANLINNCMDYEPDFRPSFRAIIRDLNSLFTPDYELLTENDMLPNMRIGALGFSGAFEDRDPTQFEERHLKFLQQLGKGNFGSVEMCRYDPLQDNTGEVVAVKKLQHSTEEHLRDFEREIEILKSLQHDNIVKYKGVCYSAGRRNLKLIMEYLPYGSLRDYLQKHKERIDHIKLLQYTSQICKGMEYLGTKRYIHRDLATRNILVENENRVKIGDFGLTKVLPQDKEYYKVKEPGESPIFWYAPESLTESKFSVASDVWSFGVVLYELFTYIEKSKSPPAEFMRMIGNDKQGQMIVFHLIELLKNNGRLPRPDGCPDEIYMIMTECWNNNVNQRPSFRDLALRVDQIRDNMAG

MERTK = MERTK (UniProt Q12866); test: as above
Sequence of MERTK (Q12866 whole entry, looked up): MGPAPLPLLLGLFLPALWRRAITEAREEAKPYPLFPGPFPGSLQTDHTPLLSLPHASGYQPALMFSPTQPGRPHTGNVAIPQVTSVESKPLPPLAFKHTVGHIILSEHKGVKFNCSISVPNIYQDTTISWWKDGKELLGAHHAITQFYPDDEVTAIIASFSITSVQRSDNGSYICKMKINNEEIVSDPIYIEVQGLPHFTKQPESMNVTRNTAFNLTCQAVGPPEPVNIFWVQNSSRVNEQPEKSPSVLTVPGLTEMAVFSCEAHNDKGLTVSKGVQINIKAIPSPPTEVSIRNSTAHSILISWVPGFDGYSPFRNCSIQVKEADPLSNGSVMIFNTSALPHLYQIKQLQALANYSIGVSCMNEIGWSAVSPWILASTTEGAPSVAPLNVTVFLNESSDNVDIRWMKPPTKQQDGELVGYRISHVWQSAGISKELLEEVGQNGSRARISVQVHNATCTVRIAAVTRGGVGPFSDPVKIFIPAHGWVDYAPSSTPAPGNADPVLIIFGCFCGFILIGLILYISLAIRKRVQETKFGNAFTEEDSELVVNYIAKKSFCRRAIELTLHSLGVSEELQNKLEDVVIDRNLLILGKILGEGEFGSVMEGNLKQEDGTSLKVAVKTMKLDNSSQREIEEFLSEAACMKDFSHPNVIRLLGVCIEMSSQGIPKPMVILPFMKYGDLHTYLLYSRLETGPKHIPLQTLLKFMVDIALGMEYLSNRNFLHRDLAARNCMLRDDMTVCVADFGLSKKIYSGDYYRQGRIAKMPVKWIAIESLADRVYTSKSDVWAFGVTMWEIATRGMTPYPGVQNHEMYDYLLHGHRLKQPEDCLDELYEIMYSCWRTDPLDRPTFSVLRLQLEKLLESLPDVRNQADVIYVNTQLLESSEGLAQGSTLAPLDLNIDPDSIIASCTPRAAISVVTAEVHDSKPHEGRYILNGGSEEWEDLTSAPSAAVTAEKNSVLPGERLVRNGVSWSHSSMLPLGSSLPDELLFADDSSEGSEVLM

c-Abl (mouse) = test: as above
EPHB2 = EPHB2 (UniProt P29323); test: as above
Sequence of EPHB2 (P29323 whole entry, looked up): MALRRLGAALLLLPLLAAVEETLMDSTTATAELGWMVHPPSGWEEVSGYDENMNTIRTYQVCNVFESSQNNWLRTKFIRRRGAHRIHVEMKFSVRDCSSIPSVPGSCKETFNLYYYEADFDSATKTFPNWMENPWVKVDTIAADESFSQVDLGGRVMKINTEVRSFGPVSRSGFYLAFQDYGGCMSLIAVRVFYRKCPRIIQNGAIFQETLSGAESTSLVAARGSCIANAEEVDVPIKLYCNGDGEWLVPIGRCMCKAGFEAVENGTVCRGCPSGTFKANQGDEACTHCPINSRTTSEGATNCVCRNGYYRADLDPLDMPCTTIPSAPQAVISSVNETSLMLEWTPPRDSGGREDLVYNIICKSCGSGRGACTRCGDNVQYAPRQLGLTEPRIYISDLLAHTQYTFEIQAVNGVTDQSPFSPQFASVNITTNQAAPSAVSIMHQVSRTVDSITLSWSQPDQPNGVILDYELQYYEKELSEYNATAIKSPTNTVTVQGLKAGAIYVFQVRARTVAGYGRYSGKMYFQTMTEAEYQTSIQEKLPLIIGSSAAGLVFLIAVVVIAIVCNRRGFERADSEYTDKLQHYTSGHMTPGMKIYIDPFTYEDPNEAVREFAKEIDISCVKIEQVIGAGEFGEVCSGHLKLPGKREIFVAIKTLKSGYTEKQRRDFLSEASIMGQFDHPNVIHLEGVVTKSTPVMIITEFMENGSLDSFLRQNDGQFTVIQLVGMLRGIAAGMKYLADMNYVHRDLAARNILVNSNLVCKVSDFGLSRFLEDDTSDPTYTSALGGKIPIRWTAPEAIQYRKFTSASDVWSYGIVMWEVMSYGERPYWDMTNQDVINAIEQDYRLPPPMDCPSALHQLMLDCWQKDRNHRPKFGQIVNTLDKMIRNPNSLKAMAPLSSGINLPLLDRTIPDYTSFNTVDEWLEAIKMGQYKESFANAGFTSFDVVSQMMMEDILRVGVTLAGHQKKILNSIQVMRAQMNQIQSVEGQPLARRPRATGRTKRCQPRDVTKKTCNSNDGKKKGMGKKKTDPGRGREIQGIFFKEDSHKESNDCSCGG

Fer (mouse) = test: as above
c-Src = test: as above
EPHB1 = EPHB1 (UniProt P54762); test: as above
Sequence of EPHB1 (P54762 whole entry, looked up): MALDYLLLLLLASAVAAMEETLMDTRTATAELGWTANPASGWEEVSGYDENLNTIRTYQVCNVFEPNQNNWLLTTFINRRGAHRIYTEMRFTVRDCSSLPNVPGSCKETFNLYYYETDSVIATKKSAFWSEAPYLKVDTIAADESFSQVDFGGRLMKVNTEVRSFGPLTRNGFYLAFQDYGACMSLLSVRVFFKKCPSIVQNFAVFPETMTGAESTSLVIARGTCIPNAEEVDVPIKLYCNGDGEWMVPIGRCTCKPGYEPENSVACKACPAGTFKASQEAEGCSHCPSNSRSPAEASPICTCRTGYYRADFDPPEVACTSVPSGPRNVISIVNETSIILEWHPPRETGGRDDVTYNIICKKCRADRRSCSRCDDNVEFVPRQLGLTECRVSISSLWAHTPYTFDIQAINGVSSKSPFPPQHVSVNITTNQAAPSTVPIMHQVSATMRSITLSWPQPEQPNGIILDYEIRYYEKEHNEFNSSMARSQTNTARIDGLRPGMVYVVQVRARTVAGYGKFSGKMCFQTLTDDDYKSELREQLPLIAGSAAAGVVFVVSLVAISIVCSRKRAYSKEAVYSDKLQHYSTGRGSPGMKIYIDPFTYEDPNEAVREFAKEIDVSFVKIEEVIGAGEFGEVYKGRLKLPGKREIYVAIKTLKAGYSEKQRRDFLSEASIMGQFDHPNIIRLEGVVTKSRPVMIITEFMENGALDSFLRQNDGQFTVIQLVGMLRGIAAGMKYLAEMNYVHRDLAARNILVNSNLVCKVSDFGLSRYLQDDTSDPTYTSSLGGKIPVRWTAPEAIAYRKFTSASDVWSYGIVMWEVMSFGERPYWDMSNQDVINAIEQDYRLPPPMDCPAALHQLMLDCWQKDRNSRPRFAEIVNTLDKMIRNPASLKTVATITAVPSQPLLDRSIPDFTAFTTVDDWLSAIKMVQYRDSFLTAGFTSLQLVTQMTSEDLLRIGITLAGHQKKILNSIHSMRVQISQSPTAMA

FGFR1 = FGFR1 (UniProt P11362); test: as above
Fyn = Fyn (UniProt P06241); test: as above
Fes = Fes (UniProt P07332); test: as above
Hck = Hck (UniProt P08631); test: as above
Sequence of Hck (P08631 whole entry, looked up): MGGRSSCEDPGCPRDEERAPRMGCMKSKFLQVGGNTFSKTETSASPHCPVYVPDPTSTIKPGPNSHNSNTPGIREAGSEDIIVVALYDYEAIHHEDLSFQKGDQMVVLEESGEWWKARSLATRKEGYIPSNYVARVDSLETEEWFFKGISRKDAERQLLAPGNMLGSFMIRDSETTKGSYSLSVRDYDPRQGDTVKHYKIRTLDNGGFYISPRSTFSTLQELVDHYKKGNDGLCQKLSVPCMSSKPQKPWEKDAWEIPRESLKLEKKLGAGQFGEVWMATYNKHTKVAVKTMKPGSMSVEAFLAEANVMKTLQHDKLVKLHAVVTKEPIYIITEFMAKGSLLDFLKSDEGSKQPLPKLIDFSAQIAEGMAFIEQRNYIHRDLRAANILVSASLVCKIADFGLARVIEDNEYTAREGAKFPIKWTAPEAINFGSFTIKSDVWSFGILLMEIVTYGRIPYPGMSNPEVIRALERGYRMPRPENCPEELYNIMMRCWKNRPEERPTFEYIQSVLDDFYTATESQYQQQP

FGFR3 = FGFR3 (UniProt P22607); test: as above
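Throughout, for SH2 binding enrichment of the phosphorylated peptide, bacterial display: peptide library displayed on the E. coli surface as eCPX fusions, selected cells deep-sequenced, score is each peptide's frequency after selection divided by its frequency in the input.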
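Throughout, for phosphorylation enrichment, bacterial display: 11-residue human phosphosite peptides and single-mutation variants displayed on the E. coli surface, counted by deep sequencing, each peptide's frequency after selection divided by its frequency in the unselected input library; frequency after pTyr selection over input frequency; kinase dosed for 20-30% of maximal phosphorylation in three min.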

Sequence of Grb2 SH2 (P62993 whole entry, looked up): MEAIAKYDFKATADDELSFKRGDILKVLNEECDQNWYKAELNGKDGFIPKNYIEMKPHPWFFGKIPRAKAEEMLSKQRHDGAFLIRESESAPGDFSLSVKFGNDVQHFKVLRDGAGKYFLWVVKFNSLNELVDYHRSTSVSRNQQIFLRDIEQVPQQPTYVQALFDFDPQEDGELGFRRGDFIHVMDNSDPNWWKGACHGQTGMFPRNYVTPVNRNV

| Sequence | SH2 binding enrichment (SHP2-C SH2) | SH2 binding enrichment (c-Src SH2) | SH2 binding enrichment (Grb2 SH2) | phosphorylation enrichment (AncSZ) | phosphorylation enrichment (Jak2) | phosphorylation enrichment (MERTK) | phosphorylation enrichment (c-Abl (mouse)) | phosphorylation enrichment (EPHB2) | phosphorylation enrichment (Fer (mouse)) | phosphorylation enrichment (c-Src) | phosphorylation enrichment (EPHB1) | phosphorylation enrichment (FGFR1) | phosphorylation enrichment (Fyn) | phosphorylation enrichment (Fes) | phosphorylation enrichment (Hck) | phosphorylation enrichment (FGFR3) |
| --- | --- | --- | --- | --- | --- | --- | --- | --- | --- | --- | --- | --- | --- | --- | --- | --- |
| HYPDVYAWEQL [ALX3_Y181_R183W] | 0.928 | 0.723 | 0.716 | 1.14 | 0.847 | 3.27 | 0.404 | 0.865 | 13.2 | 5.25 | 0.913 | 1.19 | 8.69 | 1.31 | 4.12 | 1.16 |
| IDFARYWHGDD [MMP11_Y162] | 0.878 | 0.674 | 0.843 | 0.81 | 0.639 | 0.536 | 0.592 | 0.504 | 0.799 | 0.387 | 0.676 | 0.477 | 0.405 | 0.857 | 0.463 | 0.567 |
| IEENGYNTFAS [FGF10_Y161_YF] | 0.66 | 1.45 | 0.749 | 0.952 | 0.961 | 0.506 | 0.846 | 0.526 | 0.498 | 0.628 | 0.478 | 0.602 | 0.451 | 1.07 | 0.477 | 0.614 |
| IHADICRWFNI [MARS1_Y344_Y344C] | 0.633 | 0.526 | 0.779 | 0.962 | 0.809 | 0.356 | 0.697 | 0.546 | 0.464 | 0.334 | 0.639 | 0.413 | 0.395 | 1.18 | 0.497 | 0.675 |
| IIEDPYFGNDS [ACP1_Y132_YF] | 0.584 | 0.541 | 0.946 | 1.59 | 1.45 | 0.651 | 1.04 | 0.62 | 0.711 | 1.74 | 0.804 | 0.695 | 0.867 | 1.62 | 0.96 | 1.1 |
| IIGNGYYFRVF [MYBPC3_Y1135] | 0.651 | 0.472 | 0.852 | 1.08 | 1.46 | 0.318 | 0.775 | 0.619 | 0.413 | 0.335 | 0.628 | 0.374 | 0.327 | 1.16 | 0.373 | 0.79 |
| IKAGAYDFPSL [CAMK2A_Y230_P235L] | 0.626 | 4.76 | 0.774 | 0.761 | 0.603 | 5.66 | 0.541 | 0.493 | 1.03 | 0.388 | 0.418 | 0.41 | 0.877 | 0.647 | 0.382 | 0.484 |
| IKELTYQTEED [MYH7_Y1852] | 0.832 | 0.52 | 0.879 | 1.27 | 1.1 | 0.441 | 0.753 | 0.612 | 0.635 | 0.467 | 0.591 | 0.54 | 0.579 | 1.33 | 0.604 | 0.773 |
| IKIMGYFIRTI [IDS_Y490_S491F] | 1.5 | 1.04 | 1.82 | 0.932 | 0.93 | 0.514 | 0.813 | 0.561 | 0.547 | 0.424 | 0.432 | 0.479 | 0.402 | 1.08 | 0.497 | 0.785 |
| ILNANCMAKRL [GLDC_Y839_Y839C] | 0.727 | 0.534 | 0.802 | 0.612 | 0.611 | 0.42 | 0.498 | 0.439 | 0.342 | 0.378 | 0.306 | 0.477 | 0.351 | 0.628 | 0.391 | 0.403 |
| ILTFKYLQKPM [KIT_Y547_YF] | 0.474 | 0.449 | 0.659 | 1.19 | 1.42 | 0.548 | 1.07 | 0.759 | 0.562 | 0.605 | 0.792 | 0.485 | 0.579 | 1.29 | 0.543 | 0.742 |
| ILTYKYLQIPM [KIT_Y547_K550I] | 3.97 | 0.929 | 0.893 | 1.11 | 0.817 | 0.406 | 0.706 | 0.631 | 0.389 | 0.396 | 0.7 | 0.785 | 0.422 | 0.997 | 0.483 | 0.807 |
| IMITDYLPLFR [INSR_Y87_L89P] | 0.857 | 0.659 | 1.21 | 1.09 | 2.85 | 0.427 | 0.732 | 0.651 | 0.376 | 0.577 | 0.641 | 0.737 | 0.473 | 0.985 | 0.755 | 0.729 |
| INASGYRVGPA [ACSM1_Y477_I479V] | 0.691 | 0.358 | 0.853 | 0.652 | 0.523 | 0.49 | 0.615 | 0.485 | 0.563 | 0.51 | 0.564 | 0.595 | 0.411 | 0.901 | 0.643 | 0.629 |
| INITIYGKTFC [EFHC1_Y177_R182C] | 0.737 | 0.538 | 0.881 | 1.22 | 1.38 | 0.548 | 0.982 | 0.684 | 0.617 | 0.597 | 0.656 | 0.581 | 0.532 | 1.48 | 0.505 | 0.909 |
| IPPRRYFCSGV [STAMBP_Y36_R38C] | 0.621 | 0.416 | 0.691 | 0.642 | 0.667 | 0.432 | 0.593 | 0.466 | 0.403 | 0.393 | 0.342 | 0.428 | 0.478 | 0.739 | 0.464 | 0.447 |
| IQRSLYDCPAS [PDGFRA_Y762_R764C] | 1.04 | 2.57 | 0.783 | 1.38 | 0.825 | 3.85 | 1.47 | 2.5 | 4.18 | 0.81 | 2.37 | 0.592 | 0.732 | 0.973 | 2.25 | 0.706 |
